Substitutions are numbered along the chain they refer to.
B1: 39G1_21C4 (antibody, V domains shown)
VH: QVQLQESGPGLVKPSETLSLTCAVSGYSASGVYYWGWIRQPPGKGLEWIGNIYHSGSTYYNPSLERRVSISLDTSKNHFSLRLNFVTAADTAVYYCARDRFDAFDIWGQGTMVTVSS
VL: EIVMTQSPATLSVSPGERATLSCRASQSINNILAWYQQKPGQAPRLLIYGASTRATGIPARFSGSGSGTEFTLTISSLQSEDFAVYYCQQYNNWPLTFGGGTKVEIK
B2: 5D12_18A4 (antibody, V domains shown)
VH: QVQLQESGPGLVKPLGTLSLTCAVSGGSISNSNWWSWVRQPPGKGLEWIGEIYHSGSTNYNPSLKSRVTIALDWSKNQFSLQLRSVTAADTAVYYCARYGSGPFGGDCWGQGTLVTVSS
VL: DIQLTQSPSFLSASVGDRVTISCRASQGISSYLAWYQQKPGKAPKLLIYAASTLQGGVPSRFSGSGSGTTFTLTISSLQPEDFATYYCQQLNTYPFTFGPGTKLEIK
notes: Recombinant human antibody
B3: 33H2_21B1 (antibody, V domains shown)
VH: EVQVVESGGGLVQPGGSLRLSCATSGFTFRSYWMTWVRQAPGKGLEWVANIKQDGSERHYVDSVKGRFTISRDNAKTSLYLQMSSLRAEDTAMYYCAREGYYGSGYFDYWGQGTLVTVSS
VL: DIQMTQSPSTLSASVGDRVIITCRASQSISRGLAWYQQKPGKAPKLLIYKASNLESGVPSRFSGSGSGTEFTLTISSLQPDDFAAYYCQQYSYYSHTFGQGTKVEIK
notes: Recombinant human antibody
B4: 36A12_21C1 (antibody, V domains shown)
VH: EVQLVESGGGLVQPGGSLRLSCAASGFTLSFYWMTWVRQAPGKGLEWVANIKQDGNEKNYVDSVKGRFTISKDNAKKSVFLQMNSLRAEDTAVYYCAREGYFGSGYFDYWGQGTLVTVSS
VL: B3 VL with I20T, S30N, R31S, G32W, N53T, A85P, Q90H, S92N, Y93S, S95P
notes: Recombinant human antibody
B5: 34C11_21B2 (antibody, V domains shown)
VH: B3 VH with T24A, T35S, M93V, Y102F
VL: B3 VL with V104L
notes: Recombinant human antibody
B6: 40C3_22B6 (antibody, V domains shown)
VH: B4 VH with Y60F, K72R
VL: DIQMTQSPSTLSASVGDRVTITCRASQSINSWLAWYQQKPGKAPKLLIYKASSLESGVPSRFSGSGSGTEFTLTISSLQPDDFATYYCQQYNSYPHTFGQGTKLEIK
notes: Recombinant human antibody
B7: 10C8_C43A (antibody, V domains shown)
VH: QVQLVESGGGVVQPGRSLRISCAASGFTFRSYGMHWVRQAPGKGLEWVAIIWHDESYKYYVDSVKGRFTISRDNSKNTLYLQMNSLRAEDTAVYYCARGDYYGSGSYYDAFDIWGQGTMVTVSS
VL: DIQMTQSPSSLSASVGDRVIITCRASQGISNYLAWFQQKPGKAPNLLIYAASTLRSGVPSRFSGSGSGTDFTLTISSLQPEDVATYYCQKYNSAPYTFGQGTKVEIK
notes: Cys43Ala variant of 10C8_15A1
B8: 32C12-N26S (antibody, V domains shown)
VH: QVQLVESGGGVVQPGRSLRLSCAASGFTFRNYGIHWVRQAPGKGLEWVAVIWYDGSNKFYADSVKGRFTISRDNSKNTLYLQMNSLRVEDTAVYYCAREEGIAVAPFDYWGQGTLVTVSS
VL: DIQMTQSPSSLSASVGDRVAITCRASQSIASYLNWYQQKPGKAPKLLIYGASSLQNGVPSRFSGSGSRTDFTLTISSLQPEDFATYYCQQSYSTEITFGQGTRLEIK
notes: Asn26Ser (VL CDR1) variant of 32C12_21A4
B9: 41G4_15B6 (antibody, V domains shown)
VH: B8 VH with I34M
VL: B8 VL with S26N
notes: Recombinant human antibody
B10: 34H8_21B4 (antibody, V domains shown)
VH: QVQLQESGPGLVKPSETLSLTCAVSGYSASGLYYWAWIRQPPGKGLEWIGNIYHSGRTYYNPSLESRVSISLDTSKHQVSLKLKSVTYADTAVYFCARDRFDGFDIWGQGTMVTVSS
VL: B1 VL with S28T, V104L
notes: Recombinant human antibody
B11: 39A9_28A4 (antibody, V domains shown)
VH: QVQLVESGGGVVQPGRSLRLSCAASGFTLSGYGMHWVRQAPGKGLEWVAVIWYDGSNKYYADSVKGRFTISRDNSKNMLFLQMNSLRAEDTAVYYCVRENGFGSGWFFDYWGQGNLVTVSS
VL: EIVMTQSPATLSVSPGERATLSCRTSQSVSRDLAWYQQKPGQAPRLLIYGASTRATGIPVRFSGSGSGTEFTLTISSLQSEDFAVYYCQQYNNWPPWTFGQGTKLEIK
notes: Recombinant human antibody
B12: 42D10_28A5 (antibody, V domains shown)
VH: QVQPKESGPGVVKPSETLSLTCAVSGFPISRGYYWGWIRQPPGKGLEWIGNIFHSGTTYYNPSLKSRVTISVDTSKNQISLKLTSVTAADTAVYYCVGFGDLPHYQYYVMDIWGQGTTVTVSS
VL: EIVLTQSPATLSLSPGERATLSCRASQSVSSYLAWYQQKPGQAPRLLIYDASNRATGIPARFSGSGSGTDFTLTISSLEPEDFAVYYCQQRSNWPPYTFGQGTKLEIK
notes: Recombinant human antibody
B13: 17E9_15B1 (antibody, V domains shown)
VH: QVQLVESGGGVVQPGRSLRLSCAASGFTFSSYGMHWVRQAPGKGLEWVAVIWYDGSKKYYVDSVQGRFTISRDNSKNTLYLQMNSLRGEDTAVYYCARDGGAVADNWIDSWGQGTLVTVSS
VL: DIQMTQSPSSLSASVGDRVTLTCRASQNIRSYLNWYQQKPGKAPKLLIFAASSLPSGVPSRFSGSGSVTDFTLTVSSLQPEDFATYSCQQSYSTPYTFGQGTKLEIK
notes: Recombinant human antibody
B14: 38G11_28A2 (antibody, V domains shown)
VH: B4 VH with L29F, F31S, T35S, N56S, N59H, K72R, K77N, V79L, F80Y
VL: B2 VL with S22T, G56S, T70E, L91Y, N92S, T93F, P95S, F96H, P100Q
notes: Recombinant human antibody
B15: 5D12_C108Y (antibody, V domains shown)
VH: B2 VH with C108Y
VL: B2 VL
notes: Cys108Tyr (VH) variant of 5D12_18A4
B16: 34D1_21B3 (antibody, V domains shown)
VH: QGQLVESGGGVVQPGRSLRLSCAASGFTFSSYTLHWVRQAPGKGLEWVAVIWYDGSNKYYVDSVKGRFTISRDNSKNTLYLQMNSLRAEDTAVYYCAREYGSGSYYNVYYGMDVWGQGTTVTVSS
VL: DIVMTQSPLSLPVTPGEPASISCRSSQSLLHSNGYKYLDWYLQKAGQSPHLLIYLGSNRASGVPDRFSGSGSGTDFTLKISRVEAEDVGFYYCMQTLQIPLTFGGGTKLEIK
notes: Recombinant human antibody
B17: 32F9_21A5 (antibody, V domains shown)
VH: QLQLVESGGGVVQPGRSLRLSCAASGFTFSSHGMHWVRQAPGKGLEWVAVIWYDGSSEYYADSVKGRFTISRDNSKNTLYLQMNSLRAEDTAVYYCARENVYGSGWFFDYWGQGSLVTVSS
VL: EIVMTQSPATLSVSPGERASLSCRASQSVGSNLAWYQQKPGQAPRLLIFGASTRATGIPARFSGSRSGTEFTLTISSLQSEDFALYYCQQYNNWPPWTFGQGTKLEIK
notes: Recombinant human antibody
B18: 32D4_21D6 (antibody, V domains shown)
VH: B17 VH with H32Y, S115T
VL: B17 VL with L105V
notes: Recombinant human antibody
B19: 35D11_22A1 (antibody, V domains shown)
VH: B17 VH with H32Y, Y80F, E89D, S115T
VL: B17 VL with N92D
notes: Recombinant human antibody
B20: 31F9_21A1 (antibody, V domains shown)
VH: B17 VH with L2V, V11M, A23T, Y53F, S57N, A61V, S115T
VL: B17 VL with L105V
notes: Recombinant human antibody
B21: 33E9_21A6 (antibody, V domains shown)
VH: B17 VH with P14F, S115T
VL: B17 VL
notes: Recombinant human antibody
B22: 16H2_17D1 (antibody, V domains shown)
VH: EVQLLESGADLVQPGGSLRLSCAASGFTFSSYAMSWVRQAPGKGLEWVSTIRISGGTTYYADSVKGRFTISRDNSKNTLYLQMNSLRAEDTAVYYCVRDYYNGMDVWGQGTTVTVSS
VL: EIVLTQSPATLSLSPGERATLSCRASQRVSSYLAWYQQKPGQAPRLLIYDASNRATGIPARFSGSGSGTDFTLTISSLEPEDFAVYYCQQRSYWPPAFGQGTKLEIK
notes: Recombinant human antibody
B23: 26C5_15B4 (antibody, V domains shown)
VH: B22 VH with V2A, A9G, D10G, R52S, I53G, T57S, Y59H, N102Y
VL: B22 VL with R28S, A97T
notes: Recombinant human antibody
B24: 10C8-15A4 (antibody, V domains shown)
VH: B22 VH with V2E, V12A, G56D, Y80F, Q109H
VL: B22 VL
notes: Recombinant human antibody

Biological target: T1, rat IL1RAP (Met1-Val570 plus Myc-DDK) on transfected 293 cells (Rattus norvegicus, UniProt Q63621 21-570)
T1 construct: whole, on cells; also called RR213032
Test: flow cytometry on 293 cells expressing rat IL1RAP (293-puro-ratIL1RAP) vs 293T-puro [cont.]
Procedure: Staining for flow cytometry was performed in 1× cold PBS with 0.5% BSA. Primary antibodies (1 ug/ml) were incubated with live cells on ice for 30 minutes, after a brief wash, cells were incubated with Alexa Fluro® 488-conjugated anti-human IgG secondary antibody @1:1000 (709-546-149, Jackson ImmunoResearch). Acquisition of the data was performed on a MACSQuant® Flow Cytometers (Miltenyi Biotec) and analyzed with FlowJo software.

T1 sequence (Q63621 21-570): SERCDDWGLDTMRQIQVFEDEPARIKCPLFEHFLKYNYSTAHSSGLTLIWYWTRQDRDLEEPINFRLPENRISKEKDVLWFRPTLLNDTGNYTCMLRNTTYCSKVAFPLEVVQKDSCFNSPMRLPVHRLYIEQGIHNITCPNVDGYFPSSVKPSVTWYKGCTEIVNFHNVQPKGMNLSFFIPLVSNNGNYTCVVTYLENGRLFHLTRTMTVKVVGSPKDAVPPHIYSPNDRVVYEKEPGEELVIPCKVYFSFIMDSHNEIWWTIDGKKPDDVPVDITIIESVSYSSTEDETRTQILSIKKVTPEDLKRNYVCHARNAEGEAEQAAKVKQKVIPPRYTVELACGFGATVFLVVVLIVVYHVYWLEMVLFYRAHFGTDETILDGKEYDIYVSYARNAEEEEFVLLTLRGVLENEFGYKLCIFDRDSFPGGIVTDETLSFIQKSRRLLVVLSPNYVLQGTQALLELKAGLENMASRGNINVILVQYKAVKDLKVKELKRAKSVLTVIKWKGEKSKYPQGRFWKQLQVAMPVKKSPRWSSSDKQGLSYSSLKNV

| binding result | Binder |
| --- | --- |
| no binding (tested: 1 ug/ml) | B1 |
| no binding (tested: 1 ug/ml) | B2 |

Biological target: T2, huIL1RAP ECD recombinant protein (human, UniProt Q9NPH3 21-367)
T2 construct: also called recombinant human IL1RAP-ECD; recombinant human IL1RAP; not shown: C-terminal histidine tag for purification
Test: Octet BLI, antibody on Protein A biosensor, recombinant huIL1RAP ECD
Procedure: Affinity: The affinity of antibodies to various recombinant IL1RAP protein was determined on an Octet Red™ instrument. After loading reagents into a 96-well plate, the Octet Red™ with Protein A-conjugated biosensors was programmed as follows: 30 seconds for baseline #1; 120 seconds to immobilize the antibody; 30 seconds for baseline #2; 300 seconds for association of antibody to recombinant IL1RAP; and 300-600 seconds for dissociation of recombinant IL1RAP from the antibody.

| Kd | Binder |
| --- | --- |
| 7 nM | B3 |
| 24 nM | B4 |
| 0.2 nM | B5 |
| 23 nM | B6 |
| 13 nM | B7 |
| 19 nM | B8 |
| 5 nM | B9 |
| 1.6 nM | B1 |
| 5 nM | B10 |
| 3 nM | B11 |
| 7 nM | B12 |
| 21 nM | B13 |
| 19 nM | B2 |
| 29 nM | B14 |
| 13 nM | B15 |
| 3 nM | B16 |
| 2 nM | B17 |
| 3 nM | B18 |
| 3 nM | B19 |
| 2 nM | B20 |
| 2 nM | B21 |
| 50 nM | B22 |
| 127 nM | B23 |
| 1 nM | B24 |

Reference: patent publication US20260008856A1 (BLUEFIN BIOMEDICINE, published 2026)
